Measured values reported in article PMC8228192, “Parallel and Sequential Pathways of Molecular Recognition of a Tandem-Repeat Protein and Its Intrinsically Disordered Binding Partner” (Biomolecules, 2021).
No end group written: not given here.

How the values were obtained:
Details in all cases: both partners purified
[1] = target: T1, ARM repeat domain of human β-catenin (residues 134–671) (human, UniProt P35222 134-671); test: ITC; β-catenin 2–4 µM in the cell, TCF7L2 18–40 µM in the syringe; PBS, 1 mM DTT, 30 °C; one-site binding fit
T1 construct: β-catenin, human, ARM repeat domain, residues 134–671; Plasmid was a gift from W.I. Weis; source: E. coli C41, purified (glutathione-Sepharose 4B, thrombin cleavage on resin, Mono-Q)
T1 sequence (looked up): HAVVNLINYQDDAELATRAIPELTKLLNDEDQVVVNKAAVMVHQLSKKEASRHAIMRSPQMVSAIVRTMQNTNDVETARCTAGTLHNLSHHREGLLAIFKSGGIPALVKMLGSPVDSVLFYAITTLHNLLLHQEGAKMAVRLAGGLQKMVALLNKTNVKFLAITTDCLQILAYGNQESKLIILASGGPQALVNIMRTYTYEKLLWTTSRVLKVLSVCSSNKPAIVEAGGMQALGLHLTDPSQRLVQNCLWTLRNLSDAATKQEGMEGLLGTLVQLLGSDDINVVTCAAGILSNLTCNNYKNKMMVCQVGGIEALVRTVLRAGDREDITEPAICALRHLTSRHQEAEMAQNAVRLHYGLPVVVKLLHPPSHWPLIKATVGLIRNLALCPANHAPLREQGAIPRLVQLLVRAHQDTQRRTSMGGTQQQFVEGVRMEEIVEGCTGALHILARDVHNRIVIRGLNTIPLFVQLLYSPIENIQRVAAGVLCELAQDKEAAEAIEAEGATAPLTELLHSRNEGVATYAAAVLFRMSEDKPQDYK

[2] = target: T1, ARM repeat domain of human β-catenin …; test: stopped-flow fluorescence kinetics (association); 10 nM fluorescein-labelled TCF7L2 mixed 1:1 with 100–1000 nM unlabelled β-catenin, pseudo-first-order; PBS, 1 mM DTT, 15 °C; kon from the linear fit of kobs against β-catenin concentration
[3] = target: T1, ARM repeat domain of human β-catenin …; test: fluorescence spectroscopy kinetics (dissociation, fluorimeter); pre-formed 1:1 complex of labelled TCF7L2 and β-catenin mixed 1:1 with 50-times molar excess of unlabelled TCF7L2; PBS, 1 mM DTT, 15 °C; fitted to sums of exponential phases
[4] = target: T1, ARM repeat domain of human β-catenin …; test: stopped-flow fluorescence kinetics (dissociation); pre-formed 1:1 complex (200 nM) of labelled TCF7L2 and β-catenin mixed 1:1 with 50-times molar excess of unlabelled TCF7L2 (10 µM); PBS, 1 mM DTT, 15 °C; fitted to sums of exponential phases

B1: TCF7L2 (1–54), wild type, unlabelled (domain or fragment, UniProt Q9NQB0 1-54, looked up)
chain: MPQLNGGGGDDLGANDELISFKDEGEQEEKSSENSSAERDLADVKSSLVNESET
notes: also called wild-type TCF7L2 (1–54); source: E. coli C41, purified (Ni-NTA, thrombin cleavage, Superdex 75)
binding result [1]: binds

B2: TCF7L2 (1–54) S31C E28A, fluorescein-labelled (domain or fragment, UniProt Q9NQB0 1-54, looked up)
chain: MPQLNGGGGDDLGANDELISFKDEGEQAEKC(fluorescein maleimide)SENSSAERDLADVKSSLVNESET
notes: One extra serine is left behind after thrombin cleavage of the tag; source: E. coli C41, purified (Ni-NTA, thrombin cleavage, Superdex 75), labelled with fluorescein maleimide
kon [2]: 5.84e+07 ± 0.35 M⁻¹ s⁻¹ | koff,major (major slow phase of biphasic dissociation) [3]: 0.000496 ± 0.35 s⁻¹ | koff,minor (minor fast phase of biphasic dissociation) [3]: 0.00116 ± 0.28 s⁻¹

B3: TCF7L2 (1–54) S31C D23A E24A E26A E28A E29A (5X), fluorescein-labelled (domain or fragment, UniProt Q9NQB0 1-54, looked up)
chain: MPQLNGGGGDDLGANDELISFKAAGAQAAKC(fluorescein maleimide)SENSSAERDLADVKSSLVNESET
notes: One extra serine is left behind after thrombin cleavage of the tag; also called quintuple mutant; 5X variant; source: E. coli C41, purified (Ni-NTA, thrombin cleavage, Superdex 75), labelled with fluorescein maleimide
kon [2]: 4.26e+07 ± 0.17 M⁻¹ s⁻¹ | koff,major (major slow phase of biphasic dissociation) [3]: 0.000295 ± 0.23 s⁻¹ | koff,minor (minor fast phase of biphasic dissociation) [3]: 0.00234 ± 0.33 s⁻¹

B4: TCF7L2 (1–54) S31C E38A, fluorescein-labelled (domain or fragment, UniProt Q9NQB0 1-54, looked up)
chain: MPQLNGGGGDDLGANDELISFKDEGEQEEKC(fluorescein maleimide)SENSSAARDLADVKSSLVNESET
notes: as for B2
kon [2]: 6.2e+07 ± 0.19 M⁻¹ s⁻¹ | koff,major (major slow phase of biphasic dissociation) [3]: 0.000539 ± 0.5 s⁻¹ | koff,minor (minor fast phase of biphasic dissociation) [3]: 0.00261 ± 0.28 s⁻¹

B5: TCF7L2 (1–54) S31C E24A E29A, fluorescein-labelled (domain or fragment, UniProt Q9NQB0 1-54, looked up)
chain: MPQLNGGGGDDLGANDELISFKDAGEQEAKC(fluorescein maleimide)SENSSAERDLADVKSSLVNESET
notes: One extra serine is left behind after thrombin cleavage of the tag; also called double mutant; source: E. coli C41, purified (Ni-NTA, thrombin cleavage, Superdex 75), labelled with fluorescein maleimide
kon [2]: 6.13e+07 ± 0.34 M⁻¹ s⁻¹ | koff,major (major slow phase of biphasic dissociation) [3]: 0.000425 ± 0.29 s⁻¹ | koff,minor (minor fast phase of biphasic dissociation) [3]: 0.00173 ± 0.14 s⁻¹

B6: TCF7L2 (1–54) S31C E24A, fluorescein-labelled (domain or fragment, UniProt Q9NQB0 1-54, looked up)
chain: MPQLNGGGGDDLGANDELISFKDAGEQEEKC(fluorescein maleimide)SENSSAERDLADVKSSLVNESET
notes: as for B2
kon [2]: 6.05e+07 ± 0.12 M⁻¹ s⁻¹ | koff,major (major slow phase of biphasic dissociation) [3]: 0.000503 ± 0.4 s⁻¹ | koff,minor (minor fast phase of biphasic dissociation) [3]: 0.00153 ± 0.21 s⁻¹

B7: TCF7L2 (1–54) S31C L12A, fluorescein-labelled (domain or fragment, UniProt Q9NQB0 1-54, looked up)
chain: MPQLNGGGGDDAGANDELISFKDEGEQEEKC(fluorescein maleimide)SENSSAERDLADVKSSLVNESET
notes: as for B2
kon [2]: 7.19e+07 ± 0.13 M⁻¹ s⁻¹ | koff,major (major slow phase of biphasic dissociation) [3]: 0.000977 ± 0.75 s⁻¹ | koff,minor (minor fast phase of biphasic dissociation) [3]: 0.00264 ± 0.2 s⁻¹

B8: TCF7L2 (1–54) S31C N15A, fluorescein-labelled (domain or fragment, UniProt Q9NQB0 1-54, looked up)
chain: MPQLNGGGGDDLGAADELISFKDEGEQEEKC(fluorescein maleimide)SENSSAERDLADVKSSLVNESET
notes: as for B2
kon [2]: 6.25e+07 ± 0.23 M⁻¹ s⁻¹ | koff,major (major slow phase of biphasic dissociation) [3]: 0.000442 ± 0.15 s⁻¹ | koff,minor (minor fast phase of biphasic dissociation) [3]: 0.00365 ± 0.83 s⁻¹

B9: TCF7L2 (1–54) S31C L41A, fluorescein-labelled (domain or fragment, UniProt Q9NQB0 1-54, looked up)
chain: MPQLNGGGGDDLGANDELISFKDEGEQEEKC(fluorescein maleimide)SENSSAERDAADVKSSLVNESET
notes: as for B2
kon [2]: 5.95e+07 ± 0.24 M⁻¹ s⁻¹ | koff,major (major slow phase of biphasic dissociation) [4]: 0.0993 ± 17 s⁻¹ | koff,minor (minor fast phase of biphasic dissociation) [4]: 0.616 ± 111 s⁻¹

B10: TCF7L2 (1–54) S31C L48A, fluorescein-labelled (domain or fragment, UniProt Q9NQB0 1-54, looked up)
chain: MPQLNGGGGDDLGANDELISFKDEGEQEEKC(fluorescein maleimide)SENSSAERDLADVKSSAVNESET
notes: as for B2
kon [2]: 5.67e+07 ± 0.6 M⁻¹ s⁻¹ | koff,major (major slow phase of biphasic dissociation) [3]: 0.00132 ± 0.1 s⁻¹ | koff,minor (minor fast phase of biphasic dissociation) [3]: 0.00424 ± 0.13 s⁻¹

B11: TCF7L2 (1–54) S31C, unlabelled (domain or fragment, UniProt Q9NQB0 1-54, looked up)
chain: MPQLNGGGGDDLGANDELISFKDEGEQEEKCSENSSAERDLADVKSSLVNESET
notes: One extra serine is left behind after thrombin cleavage of the tag; also called WT; pseudo-wild type; source: E. coli C41, purified (Ni-NTA, thrombin cleavage, Superdex 75)
binding result [1]: binds

B12: TCF7L2 (1–54) S31C, labelled with fluorescein maleimide at Cys31 (domain or fragment, UniProt Q9NQB0 1-54, looked up)
chain: MPQLNGGGGDDLGANDELISFKDEGEQEEKC(fluorescein maleimide)SENSSAERDLADVKSSLVNESET
notes: One extra serine is left behind after thrombin cleavage of the tag; also called fluorescein-labelled WT; fluorescent-labelled WT TCF7L2 (1–54); source: E. coli C41, purified (Ni-NTA, thrombin cleavage, Superdex 75), labelled with fluorescein maleimide
kon [2]: 7.33e+07 ± 0.14 M⁻¹ s⁻¹ | koff,major (major slow phase of biphasic dissociation) [3]: 0.000573 ± 0.4 s⁻¹ | koff,minor (minor fast phase of biphasic dissociation) [3]: 0.00152 ± 0.28 s⁻¹

B13: TCF7L2 (1–54) S31C E17A, fluorescein-labelled (domain or fragment, UniProt Q9NQB0 1-54, looked up)
chain: MPQLNGGGGDDLGANDALISFKDEGEQEEKC(fluorescein maleimide)SENSSAERDLADVKSSLVNESET
notes: as for B2
kon [2]: 6.3e+07 ± 0.42 M⁻¹ s⁻¹ | koff,major (major slow phase of biphasic dissociation) [3]: 0.00891 ± 2.9 s⁻¹ | koff,minor (minor fast phase of biphasic dissociation) [3]: 0.0283 ± 1.9 s⁻¹

B14: TCF7L2 (1–54) S31C V44A, fluorescein-labelled (domain or fragment, UniProt Q9NQB0 1-54, looked up)
chain: MPQLNGGGGDDLGANDELISFKDEGEQEEKC(fluorescein maleimide)SENSSAERDLADAKSSLVNESET
notes: as for B2
kon [2]: 5.05e+07 ± 0.46 M⁻¹ s⁻¹ | koff,major (major slow phase of biphasic dissociation) [4]: 0.0742 ± 8 s⁻¹ | koff,minor (minor fast phase of biphasic dissociation) [4]: 0.498 ± 70 s⁻¹

B15: TCF7L2 (1–54) S31C I19A, fluorescein-labelled (domain or fragment, UniProt Q9NQB0 1-54, looked up)
chain: MPQLNGGGGDDLGANDELASFKDEGEQEEKC(fluorescein maleimide)SENSSAERDLADVKSSLVNESET
notes: One extra serine is left behind after thrombin cleavage of the tag; also called TCF7L2 I19A; source: E. coli C41, purified (Ni-NTA, thrombin cleavage, Superdex 75), labelled with fluorescein maleimide
kon [2]: 7.04e+07 ± 0.52 M⁻¹ s⁻¹ | koff,major (major slow phase of biphasic dissociation) [4]: 0.011 ± 0.5 s⁻¹ | koff,minor (minor fast phase of biphasic dissociation) [4]: 0.207 ± 10 s⁻¹

B16: TCF7L2 (1–54) S31C K45A, fluorescein-labelled (domain or fragment, UniProt Q9NQB0 1-54, looked up)
chain: MPQLNGGGGDDLGANDELISFKDEGEQEEKC(fluorescein maleimide)SENSSAERDLADVASSLVNESET
notes: as for B2
kon [2]: 1.031e+08 ± 0.19 M⁻¹ s⁻¹ | koff,major (major slow phase of biphasic dissociation) [3]: 0.00219 ± 0.4 s⁻¹ | koff,minor (minor fast phase of biphasic dissociation) [3]: 0.015 ± 1.3 s⁻¹

B17: TCF7L2 (1–54) S31C E29A, fluorescein-labelled (domain or fragment, UniProt Q9NQB0 1-54, looked up)
chain: MPQLNGGGGDDLGANDELISFKDEGEQEAKC(fluorescein maleimide)SENSSAERDLADVKSSLVNESET
notes: as for B2
kon [2]: 5.73e+07 ± 0.43 M⁻¹ s⁻¹ | koff,major (major slow phase of biphasic dissociation) [3]: 0.000897 ± 0.44 s⁻¹ | koff,minor (minor fast phase of biphasic dissociation) [3]: 0.00245 ± 0.21 s⁻¹

B18: TCF7L2 (1–54) S31C D23A, fluorescein-labelled (domain or fragment, UniProt Q9NQB0 1-54, looked up)
chain: MPQLNGGGGDDLGANDELISFKAEGEQEEKC(fluorescein maleimide)SENSSAERDLADVKSSLVNESET
notes: as for B2
kon [2]: 5.31e+07 ± 0.25 M⁻¹ s⁻¹ | koff,major (major slow phase of biphasic dissociation) [3]: 0.0003 ± 0.16 s⁻¹ | koff,minor (minor fast phase of biphasic dissociation) [3]: 0.00239 ± 0.7 s⁻¹

B19: TCF7L2 (1–54) S31C F21A, fluorescein-labelled (domain or fragment, UniProt Q9NQB0 1-54, looked up)
chain: MPQLNGGGGDDLGANDELISAKDEGEQEEKC(fluorescein maleimide)SENSSAERDLADVKSSLVNESET
notes: as for B2
kon [2]: 4.82e+07 ± 0.17 M⁻¹ s⁻¹ | koff,major (major slow phase of biphasic dissociation) [4]: 0.0258 ± 2 s⁻¹ | koff,minor (minor fast phase of biphasic dissociation) [4]: 0.423 ± 15 s⁻¹

B20: TCF7L2 (1–54) S31C E26A, fluorescein-labelled (domain or fragment, UniProt Q9NQB0 1-54, looked up)
chain: MPQLNGGGGDDLGANDELISFKDEGAQEEKC(fluorescein maleimide)SENSSAERDLADVKSSLVNESET
notes: as for B2
kon [2]: 5.59e+07 ± 0.22 M⁻¹ s⁻¹ | koff,major (major slow phase of biphasic dissociation) [3]: 0.000474 ± 0.3 s⁻¹ | koff,minor (minor fast phase of biphasic dissociation) [3]: 0.00166 ± 0.16 s⁻¹
